{"source": "patent US7485710B2", "about": "“Nucleic acids coding for adhesion factor of group B streptococcus, adhesion factors of group B streptococcus and further uses thereof” (priority 2002, dated 2009)", "molecules": {"B1": {"name": "FbsA-N: fusion protein with the 19 N-terminal repeats of FbsA-19, truncated at its C-terminus (protein)", "chain": "MDSVGNQSQGNVLERRQRDAENRSQGNVLERRQRDVENKSQGNVLERRQRDAENKSQGNVLERRQRDAENRSQGNVLERRQRDAENRSQGNVLERRQRDAENRSQGNVLERRQRDAENRSQGNVLERRQRDAENRSQGNVLERRQRDVENKSQGNVLERRQRDAENKSQGNVLERRQRDAENRSQGNVLERRQRDAENRSQGNVLERRQRDAENRSQGNVLERRQRDAENRSQGNVLERRQRDAENRSQGNVLERRQRDAENRSQGNVLERRQRDAENRSQGNVLERRQRDAENRSQGNVLERRQRDAENKSQVGQLIG", "modifications": "left off: small tags and cut ends", "notes": "fusion protein with the 19 N-terminal repeats of FbsA-19, truncated at its C-terminus"}, "B2": {"name": "FbsA-9: derivative of FbsA-19 fusion protein with only 9 repeats in its repeat domain (protein)", "chain": "MDSVGNQSQGNVLERRQRDAENRSQGNVLERRQRDVENKSQGNVLERRQRDAENKSQGNVLERRQRDAENRSQGNVLERRQRDAENRSQGNVLERRQRDAENRSQGNVLERRQRDAENRSQGNVLERRQRDAENRSQGNVLERRQRDAENKSQVGQLIGKNPLLSKSIISRENNHSSQGDSNKQSFSKKVSQVTNVANRPMLTNNSRTISVINKLPKTGDDQNV", "modifications": "left off: small tags and cut ends", "notes": "derivative of FbsA-19 fusion protein with only 9 repeats in its repeat domain"}}, "key": {"A549 cells": {"test_system": "A549 cells", "experiment": "Epithelial cell adherence and internalization assay of GBS 6313 in presence of proteins", "type": "cell-based, human", "conditions": "fibrinogen 0.1 μg/ml to 1.0 μg/ml; fibronectin 10 μg/ml; data not shown", "procedure": "The adherence of GBS 6313 to A549 cells (A) and its internalization into these cells (B) was arbitrarily set to 100% and the results obtained in the presence of the different fusion proteins was related to these values. Each experiment was performed at least three times in triplicate.\nAdherence of GBS to epithelial cells and internalization into epithelial cells was assayed essentially as described previously (Caparon et al., 1991; Rubens et al. 1992). Briefly, A549 cells were transferred to 24-well tissue culture plates at approximately 4×10^5 cells per well and cultivated overnight in RPMI (Gibco BRL) tissue culture medium, supplemented with 10% of fetal calf serum. After replacement of the medium with 1 ml of fresh medium, the cells were infected with 5×10^6 streptococci per well and incubated at 37° C. for 2 h. The non-adherent bacteria were removed by washing three times with PBS. In adherence assays, the epithelial cells were subsequently detached from the well by the addition of trypsin/EDTA and lysed by adding 300 μl of distilled water. Adherent bacteria were quantitated by plating serial dilutions of the lysate onto THY agar plates. For internalization assays the epithelial cells were incubated after 2 h of infection for another 2 h in tissue culture medium supplemented with penicilling G (10 U) and streptomycin (0.01 mg) to kill extracellular bacteria. After three washes with PBS, the epithelial cells were detached by the addition of trypsin/EDTA and lysed in 300 μl of distilled water. The amount of intracellular bacteria was quantified by plating serial dilutions of the lysate onto THY agar plates. Each experiment was repeated at least three times in triplicate. […]\nAdherence of S. agalactiae to A549 and HEL299 cells and internalization into these cells was assayed essentially as described in Example 1 for A549 cells. In some experiments, A549 cells were preincubated with different amounts of FbsA protein or FbsA-derived peptides in RPMI medium for 30 min with three subsequent washes with PBS."}, "human fibrinogen [1]": {"target": "T1, human fibrinogen (Homo sapiens, UniProt P02671+P02675+P02679)", "T1 construct": "purchased Sigma-Aldrich", "T1 sequence (P02675 31-491)": "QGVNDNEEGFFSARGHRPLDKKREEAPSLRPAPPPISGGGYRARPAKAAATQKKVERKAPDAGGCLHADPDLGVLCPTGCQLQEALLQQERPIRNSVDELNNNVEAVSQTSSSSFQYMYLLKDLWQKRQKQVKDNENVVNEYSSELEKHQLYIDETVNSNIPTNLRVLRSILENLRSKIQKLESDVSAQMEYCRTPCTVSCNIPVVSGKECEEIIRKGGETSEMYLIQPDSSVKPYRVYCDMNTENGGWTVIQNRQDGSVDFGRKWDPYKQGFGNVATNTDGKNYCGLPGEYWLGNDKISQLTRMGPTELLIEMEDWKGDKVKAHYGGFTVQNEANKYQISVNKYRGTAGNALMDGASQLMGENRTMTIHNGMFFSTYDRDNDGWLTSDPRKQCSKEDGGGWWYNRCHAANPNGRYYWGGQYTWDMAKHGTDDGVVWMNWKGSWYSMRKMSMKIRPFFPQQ", "T1 sequence (P02679 27-433)": "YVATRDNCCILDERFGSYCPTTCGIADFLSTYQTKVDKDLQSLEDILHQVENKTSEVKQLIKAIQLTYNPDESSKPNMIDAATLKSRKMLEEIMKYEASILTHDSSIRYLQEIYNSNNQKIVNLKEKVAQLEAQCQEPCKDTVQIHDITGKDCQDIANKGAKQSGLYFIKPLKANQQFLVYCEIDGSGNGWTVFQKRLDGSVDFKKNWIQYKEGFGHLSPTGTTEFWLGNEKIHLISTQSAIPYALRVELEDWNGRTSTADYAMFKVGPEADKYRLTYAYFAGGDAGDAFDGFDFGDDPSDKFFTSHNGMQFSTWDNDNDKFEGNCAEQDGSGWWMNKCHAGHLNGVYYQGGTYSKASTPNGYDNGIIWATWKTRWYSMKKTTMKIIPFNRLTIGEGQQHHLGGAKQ", "T1 sequence (P02671 20-629)": "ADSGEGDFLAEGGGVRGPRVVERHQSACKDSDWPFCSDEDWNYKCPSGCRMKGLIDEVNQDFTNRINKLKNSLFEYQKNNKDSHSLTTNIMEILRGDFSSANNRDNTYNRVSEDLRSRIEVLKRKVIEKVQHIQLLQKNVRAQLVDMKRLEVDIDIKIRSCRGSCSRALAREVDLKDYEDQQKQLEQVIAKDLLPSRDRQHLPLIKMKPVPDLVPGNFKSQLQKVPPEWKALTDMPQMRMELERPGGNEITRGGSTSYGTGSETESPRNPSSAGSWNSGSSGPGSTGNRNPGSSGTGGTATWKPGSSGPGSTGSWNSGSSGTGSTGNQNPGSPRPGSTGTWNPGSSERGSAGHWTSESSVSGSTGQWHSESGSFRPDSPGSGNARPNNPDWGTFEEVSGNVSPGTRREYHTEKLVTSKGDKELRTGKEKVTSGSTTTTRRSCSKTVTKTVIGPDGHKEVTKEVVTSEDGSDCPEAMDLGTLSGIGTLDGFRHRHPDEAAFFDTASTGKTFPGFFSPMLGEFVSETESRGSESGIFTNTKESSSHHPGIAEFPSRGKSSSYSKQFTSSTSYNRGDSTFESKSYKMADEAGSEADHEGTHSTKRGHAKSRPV", "experiment": "Spot membrane analysis of fibrinogen binding by synthetic peptides", "conditions": "peptides derived from FbsA repeat GNVLERRQRDAENRSQ", "procedure": "Fibrinogen binding was tested with peptides carrying the FbsA repeat motif ‘GNVLERRQRDAENRSQ’ (SEQ ID 113) and with peptides containing the scrambled sequence ‘GLSQNRDVRENQRARE’. (SEQ ID 205) Synthetic peptides, which differed from the repeat motif in that single amino acids had been replaced by alanine, were probed for fibrinogen binding. Beside the spot membrane, the sequence of each synthetic peptide is listed. Bold and underlined letters indicate amino acid substitutions within the repeat motif.\nSynthetic peptides were tested for fibrinogen binding, in which each of the amino acids of the fibrinogen-binding repeat was replaced by each of the 20 amino acids. The vertical letters, printed in bold, represent the FbsA-derived fibrinogen binding sequence ‘GNVLERRQRDAENRSQ’ (SEQ ID NO: 113). The horizontal letters represent those amino acids that were introduced in the synthetic peptides instead of the original amino acid in the respective position.\nIn Western blot experiments proteins were separated by SDS-PAGE and electroblotted onto nitrocellulose. […] For spot membrane experiments peptides of 16 amino acids were synthesized and equal amounts of the peptides were directly spotted onto cellulose paper as described previously (Frank and Overwin, 1996). Blocking was performed in membrane blocking solution (MBS) that consisted of 20 ml casein based blocking buffer (Genosys Biotechnologies, Cambridge, England), 80 ml Tris-buffered saline (TBS), 0.05% tween 20, and 5 g sucrose. Probing for fibrinogen-binding was performed as described below.\nMembranes that had been blocked overnight were incubated for 1 h with 2 μg/ml of human fibrinogen. For Western and colony blot experiments, fibrinogen and antibodies were diluted in PBS while for spot membrane analysis they were diluted in MBS. Following three washes with PBS, the membrane was incubated with anti-fibrinogen antibodies (1:1000 in PBS or MBS) for 1 h. This incubation was followed by three washes with PBS, containing 0.05% tween 20 (PBST) and two washes with PBS. Subsequently, the membrane was incubated for 1 h with peroxidase-labelled anti-rabbit IgG (1:1000 in PBS or MBS). After three washes with PBST and two washes with PBS, bound fibrinogen was detected by chemiluminescence using the ECL-kit (Amersham/Pharmacia). In control experiments, no cross-reactivity of the used antibodies with the immobilized proteins and peptides was detected."}, "GBS 6313": {"test_system": "GBS 6313", "experiment": "Competitive inhibition of 125I-labelled fibrinogen binding to GBS", "parameters": "species or system Streptococcus agalactiae", "conditions": "for inhibition of fibrinogen binding to GBS: 160 μM synthetic peptide, radiolabelled fibrinogen", "procedure": "FbsA-9 differs from FbsA-19 in that it contains only 9 repeats in its repeat domain. The binding assay was performed with ^125I-labelled fibrinogen in the presence of different concentrations of each fusion protein. Each experiment was performed at least in triplicate.\nEach experiment was performed at least in triplicate.\nPurified human fibrinogen was radiolabelled with ^125I, using the chloramin T method (Hunter and Greenwood, 1962). Binding of labelled fibrinogen to GBS was performed essentially as described by Chhatwal et al. (Chhatwal, Muller, and Blobel, 1983). Briefly, overnight cultures of GBS were pelleted by centrifugation, washed twice with phosphate-buffered saline supplemented with 0.02% Tween 20 (PBST) and adjusted photometrically to a transmission of 10% at 600 nm. A total of 0.2 ml of the bacterial suspension was added to 20 μl of ^125I-labelled fibrinogen containing 23 ng of fibrinogen. After incubation for 1 h at room temperature, the streptococci were sedimented by centrifugation and washed with 1 ml of PBST. The radioactivity of the pellet was finally measured in a gamma counter (Packard Instruments). The amount of bacterial-bound fibrinogen was calculated as the percentage of total radiolabelled fibrinogen added to the bacteria. In inhibition experiments, the binding of 23 ng of radiolabelled fibrinogen to 0.2 ml of GBS (T=10%) was determined in the presence of various amounts of FbsA fusion proteins, Bsp fusion protein or synthetic peptides. Each experiment was repeated at least three times in triplicate."}, "human fibrinogen [2]": {"target": "T1, human fibrinogen", "experiment": "Western blot of fusion proteins for fibrinogen binding", "conditions": "His-tagged fusion proteins separated by SDS-PAGE, blotted, probed with human fibrinogen", "excerpt": "The fibrinogen binding activity of the three proteins encoded by different constructs are indicated below the schematic FbsA drawing.\nThe fusion proteins were size-separated by SDS-PAGE, transferred onto a nitrocellulose membrane and tested for fibrinogen binding by Western blotting. Bound fibrinogen was detected with rabbit anti-fibrinogen antibodies, followed by peroxidase-labelled goat anti-rabbit antibodies, and visualized by chemiluminescence. PabC and Gbs0851: full-length fusion proteins; PabC-N: N-terminal 388 amino acids of PabC; PabC-C: C-terminal 222 amino acids of PabC. (C) Identification of the FbsA and PabC-binding sites within human fibrinogen by Western blot analysis. […] Bound fusion proteins were detected with mouse anti-HisTag antibodies, followed by peroxidase-conjugated goat anti-mouse IgG fab fragments and visualized by chemiluminescence. […]\nMembranes that had been blocked overnight were incubated for 1 h with 2 μg/ml of human fibrinogen. […] After three washes with PBST and two washes with PBS, bound fibrinogen was detected by chemiluminescence using the ECL-kit (Amersham/Pharmacia). In control experiments, no cross-reactivity of the used antibodies with the immobilized proteins and peptides was detected."}}, "data": [{"molecule": "fibronectin [reference compound]", "values": [{"measurement": "bacterial adherence to A549 cells after pre-incubation of S. agalactiae 6313 with protein", "setting": "A549 cells", "result": "did not exert an inhibitory effect"}, {"measurement": "bacterial invasion of A549 cells after pre-incubation of S. agalactiae 6313 with protein", "setting": "A549 cells", "result": "did not exert an inhibitory effect"}]}, {"molecule": "R^14K: FbsA repeat peptide with R14K substitution (GNVLERRQRDAENKSQ; listed as Streptococcus agalactiae)", "values": [{"measurement": "fibrinogen binding of synthetic 16-mer peptides on spot membrane", "setting": "human fibrinogen [1]", "result": "retained fibrinogen binding"}]}, {"molecule": "GNVLERRQRDAENRSQ (listed as Streptococcus agalactiae) [pep_FbsA]", "values": [{"measurement": "inhibition of fibrinogen binding to GBS", "setting": "GBS 6313", "result": 80, "unit": "%"}, {"measurement": "fibrinogen binding of synthetic 16-mer peptides on spot membrane", "setting": "human fibrinogen [1]", "result": "strong interaction"}]}, {"molecule": "GNVLEARQRDAENRSQ [pep_R6A, synthetic FbsA repeat unit peptide carrying an R6A substitution]", "values": [{"measurement": "inhibition of fibrinogen binding to GBS", "setting": "GBS 6313", "result": 20, "unit": "%"}, {"measurement": "fibrinogen binding of synthetic 16-mer peptides on spot membrane", "setting": "human fibrinogen [1]", "result": "significantly reduced binding to fibrinogen"}, {"measurement": "fibrinogen binding of synthetic 16-mer peptides on spot membrane", "setting": "human fibrinogen [1]; listed as R6A", "result": "retained little binding activity"}]}, {"molecule": "GLSQNRDVRENQRARE (listed as Streptococcus agalactiae) [randomised peptide, reference compound]", "values": [{"measurement": "fibrinogen binding of synthetic 16-mer peptides on spot membrane", "setting": "human fibrinogen [1]", "result": "no binding of fibrinogen"}]}, {"molecule": "B1", "values": [{"measurement": "fibrinogen binding in Western blot", "setting": "human fibrinogen [2]", "result": "fibrinogen binding was observed"}]}, {"molecule": "B2", "values": [{"measurement": "inhibition of binding of 125I-labelled fibrinogen to GBS 6313", "setting": "GBS 6313; increasing concentrations of purified fusion protein", "result": "significantly higher concentration of FbsA-9 had to be used to obtain a comparable inhibition"}]}]}
